B1: TCO-conjugated scFv: scFv of mutated teplizumab (SEQ ID NO: 42) conjugated with Mal-PEG3-TCO (protein)
scFv: DIQMTQSPSSLSASVGDRVTITCSASSSVSYMNWYQQTPGKAPKRWIYDTSKLASGVPSRFSGSGSGTDYTFTISSLQPEDIATYYCQQWSSNPFTFGQGTKLQITRGSTSGSGKPGSGEGSTKGQVQLVQSGGGVVQPGRSLRLSCKASGYTFTRYTMHWVRQAPGKGLEWIGYINPSRGYTNYNQKVKDRFTISRDNSKNTAFLQMDSLRPEDTGVYFCARYYDDHYSLDYWGQGTPVTVSSGGGGSGGGGSC
modifications: Mal-PEG3-TCO conjugate; mutated teplizumab scFv
B2: DBCO-conjugated scFv specific for CD3: scFv of mutated teplizumab (SEQ ID NO: 42) conjugated with Mal-PEG5-DBCO (protein)
scFv: B1 scFv
modifications: Mal-PEG5-DBCO conjugate; mutated teplizumab scFv

System: CD3-Fc-fusion protein
Sequence (P07766 23-126 limits assumed): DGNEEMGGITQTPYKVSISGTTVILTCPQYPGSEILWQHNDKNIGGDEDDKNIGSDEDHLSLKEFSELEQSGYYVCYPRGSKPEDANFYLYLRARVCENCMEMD
Assay: ELISA analysis of TCO- and DBCO-conjugated scFv specific for CD3
Assay type: binding
Settings: anti-PD1 scFv negative control, anti-CD3 scFv positive control
Description: The DNA sequence encoding SEQ ID NO: 42 was synthesized and expressed as in the above Examples. The sequences of VL and VH of scFv specific for CD3 were those of VL and VH of mutated Teplizumab. For the conjugation with Mal-PEG3-TCO and Mal-PEG5-DBCO (Conju-probe, Inc.), the cysteine residue at the C-terminal end of the purified scFv of the mutated teplizumab was reduced by incubating 5 mM DTT at room temperature for 4 hours with gentle shaking. The buffer of reduced anti-CD3 scFv was exchanged to sodium phosphate buffer (100 mM sodium phosphate, pH7.0, 50 mM NaCl, and 5 mM EDTA) by using NAP-10 Sephadex G-25 column. After the reduction reaction and buffer exchange, conjugation was conducted overnight at room temperature in a reaction molar ratio of 1:1 ([Mal-PEG3-TCO or Mal-PEG5-DBCO:[scFv]]. The excess crosslinker was removed by a desalting column and the TCO-conjugated and DBCO-conjugated scFv products were analyzed.
The purity of TCO-conjugated scFvs specific for CD3 was identified through Coomassie staining of 12% SDS-PAGE (data not shown). FIG. 23A and […] show, respectively, the ELISA analysis of TCO-conjugated scFv and DBCO-conjugated scFv specific for CD3, in which anti-PD1 scFv and anti-CD3 scFv were used as a negative control and positive control, respectively.

Molecule	binding to CD3-Fc-fusion protein (ELISA)
B1	bound to CD3-Fc-fusion protein
B2	bound to CD3-Fc-fusion protein
